Experimental data: US20070020327A1
Values belong to the binder of their own block, whether it stands above or below them.

Key:
HLA-A*0202 (human) [1] = experiment: competitive inhibition of 125I-labelled standard peptide binding to purified HLA, gel filtration
HLA-A*0206 (human) [2] = experiment: as above
HLA-A*6802 (human) [3] = experiment: as above
HLA-A*0101 (human) = experiment: inhibition of 125I-labeled standard peptide 944.02 binding to purified HLA-A*0101, gel filtration
HLA-A*0201 (human) [4] = experiment: competition binding to purified HLA, 125I-labelled standard peptide, gel filtration; ratio = IC50 standard / IC50 test peptide; conditions: remark: other sources report otherwise
HLA-A*0202 (human) [5] = experiment: as above; conditions: remark: other sources report otherwise
HLA-A*0203 (human) [6] = experiment: as above; conditions: remark: other sources report otherwise
HLA-A*0206 (human) [7] = experiment: as above; conditions: remark: other sources report otherwise
HLA-A*0201 (human) [8] = experiment: competitive inhibition of 125I-labelled standard peptide binding to purified HLA, gel filtration; ratio = IC50 standard / IC50 test peptide
HLA-A*0202 (human) [9] = experiment: as above
HLA-A*0203 (human) [10] = experiment: as above
HLA-A*0206 (human) [11] = experiment: as above
HLA-A*6802 (human) [12] = experiment: as above; conditions: remark: other sources report otherwise
[13] = target: HLA-A*0201 (purified HLA class I molecule) (human); experiment: competition with 125I-labelled standard peptide for purified HLA, gel filtration
[14] = target: HLA-A*0202 (purified HLA class I molecule) (human); experiment: as above
[15] = target: HLA-A*0203 (purified HLA class I molecule) (human); experiment: as above
[16] = target: HLA-A*0206 (purified HLA class I molecule) (human); experiment: as above
HLA-A*0201 (human) [17] = experiment: competition with 125I-labelled standard peptide for purified HLA, gel filtration; ratio = IC50 standard / IC50 test peptide
HLA-A*0202 (human) [18] = experiment: as above
HLA-A*0203 (human) [19] = experiment: as above
HLA-A*0206 (human) [20] = experiment: as above
HLA-A*6802 (human) [21] = experiment: as above
HLA-A*0201 (human) [22] = experiment: competition with 125I-labelled standard peptide 941.01 ([..]) for purified HLA-A*0201, gel filtration
HLA-A*0202 (human) [23] = experiment: competition with 125I-labelled standard peptide 941.01 ([..]) for purified HLA-A*0202, gel filtration
HLA-A*0203 (human) [24] = experiment: competition with 125I-labelled standard peptide 941.01 ([..]) for purified HLA-A*0203, gel filtration
HLA-A*0206 (human) [25] = experiment: competition with 125I-labelled standard peptide 941.01 ([..]) for purified HLA-A*0206, gel filtration
HLA-A*6802 (human) [26] = experiment: competition with 125I-labelled standard peptide 1072.34 ([..]) for purified HLA-A*6802, gel filtration
HLA-A*0201 (human) [27] = experiment: competition for purified HLA with 125I-labelled standard peptide 941.01 [..] as competitor, gel filtration; conditions: scale: ratio
HLA-A*0202 (human) [28] = experiment: as above; conditions: scale: ratio
HLA-A*0203 (human) [29] = experiment: as above; conditions: scale: ratio
HLA-A*6802 (human) [30] = experiment: competition for purified HLA with 125I-labelled standard peptide 1072.34 [..] as competitor, gel filtration; conditions: scale: ratio
[31] = target: HLA-A*0101 molecule, purified from cell lysates (human); experiment: competition with 125I-labelled standard peptide for purified HLA-A*0101, gel filtration
HLA-A*0301 (human) = experiment: competition with 125I-labelled probe peptide for purified HLA-A*0301, gel filtration
HLA-A*1101 (human) = experiment: competition with 125I-labelled standard peptide 940.06 ([..], IC50 […] nM) for purified HLA-A*1101; gel filtration

binding affinity ratio (ratio to standard peptide) (HLA-A*0202 (human) [1]): 0.0002 | binding affinity ratio (ratio to standard peptide) (HLA-A*0206 (human) [2]): 0.0002 | binding affinity ratio (ratio to standard peptide) (HLA-A*6802 (human) [3]): -0.0001
Binder: KITDVVKV (modifications not checked) [KITDVVKV (Kallikrein, position 131)]

binding affinity ratio (IC50 of the standard peptide / IC50 of the test peptide) (HLA-A*0101 (human)): 0.001
Binder: PSLYTKVVHY (modifications not checked) [PSA 236 peptide …]

binding affinity ratio (HLA-A*0201 (human) [4]): 0.0041 | binding affinity ratio (HLA-A*0202 (human) [5]): 0.018 | binding affinity ratio (HLA-A*0203 (human) [6]): 0.01 | binding affinity ratio (HLA-A*0206 (human) [7]): 0.0001
Binder: DLPTQEPALGT (modifications not checked) [… (PSA, position 136, 11 amino acids)]

binding affinity ratio (HLA-A*0201 (human) [8]): -0.0001 | binding affinity ratio (HLA-A*0202 (human) [9]): -0.0001 | binding affinity ratio (HLA-A*0203 (human) [10]): 0.0002 | binding affinity ratio (HLA-A*0206 (human) [11]): 0.0002
Binder: VAVYSHGWA (modifications not checked) [… (Kallikrein, position 40)]

binding affinity ratio (HLA-A*0201 (human) [8]; remark: other sources report otherwise): 0.0008 | binding affinity ratio (HLA-A*6802 (human) [12]): -0.0001
Binder: VLGLPTQEPA (modifications not checked) [… (Kallikrein, position 138)]

binding affinity ratio (IC50 of standard peptide / IC50 of test peptide) [13]: 0.0006 | binding affinity ratio (IC50 of standard peptide / IC50 of test peptide) [14]: 0.0012 | binding affinity ratio (IC50 of standard peptide / IC50 of test peptide) [15]: 0.0033 | binding affinity ratio (IC50 of standard peptide / IC50 of test peptide) [16]: -0.0001
Binder: MLCAGRWT (modifications not checked) [PSA peptide MLCAGRWT (position 192, 8 amino acids)]

binding affinity ratio (ratio to standard peptide) (HLA-A*0201 (human) [17]): -0.0001 | binding affinity ratio (ratio to standard peptide) (HLA-A*0202 (human) [18]): -0.0001 | binding affinity ratio (ratio to standard peptide) (HLA-A*0203 (human) [19]): 0.0001 | binding affinity ratio (ratio to standard peptide) (HLA-A*0206 (human) [20]): -0.0001 | binding affinity ratio (ratio to standard peptide) (HLA-A*6802 (human) [21]): -0.0001
Binder: QVHPQKVT (modifications not checked) [PSA peptide QVHPQKVT, position 182, 8 amino acids]

binding affinity ratio (IC50 of standard peptide / IC50 of test peptide) (HLA-A*0201 (human) [22]): -0.0001 | binding affinity ratio (IC50 of standard peptide / IC50 of test peptide) (HLA-A*0202 (human) [23]): -0.0001 | binding affinity ratio (IC50 of standard peptide / IC50 of test peptide) (HLA-A*0203 (human) [24]): -0.0001 | binding affinity ratio (IC50 of standard peptide / IC50 of test peptide) (HLA-A*0206 (human) [25]): -0.0001 | binding affinity ratio (IC50 of standard peptide / IC50 of test peptide) (HLA-A*6802 (human) [26]): -0.0001
Binder: VASRGRAV (modifications not checked) [PSA peptide VASRGRAV (position 38, 8 amino acids)]

binding affinity ratio (HLA-A*0201 (human) [27]): 0.0002 | binding affinity ratio (HLA-A*0202 (human) [28]): 0.0005 | binding affinity ratio (HLA-A*0203 (human) [29]): 0.0005 | binding affinity ratio (HLA-A*6802 (human) [30]): -0.0001
Binder: GVLVHPQWVLT (modifications not checked) [… (Kallikrein position 52 / PSA position 48, 11-mer)]

binding affinity ratio (IC50 of the standard peptide / IC50 of the test peptide) [31]: 0.0001
Binder: GMPEGDLVY (modifications not checked) [PSM peptide … (position 168, 9 amino acids)]

binding affinity ratio (IC50 of the standard peptide / IC50 of the test peptide) (HLA-A*0301 (human)): 0.0001
Binder: PANEYAYRR (modifications not checked) [PSM 273 peptide …]

binding affinity ratio (IC50 of standard peptide / IC50 of test peptide) (HLA-A*1101 (human)): 0.0002
Binder: PANEYAYRR (modifications not checked) [PSM.273 peptide …]
